The values below come from patent US20140017249A1.

In the assay the target is IL-1 receptor (UniProt P14778). In words: cell-based or functional assay.
Sequence of UniProt P14778 (P14778 18-569 limits assumed): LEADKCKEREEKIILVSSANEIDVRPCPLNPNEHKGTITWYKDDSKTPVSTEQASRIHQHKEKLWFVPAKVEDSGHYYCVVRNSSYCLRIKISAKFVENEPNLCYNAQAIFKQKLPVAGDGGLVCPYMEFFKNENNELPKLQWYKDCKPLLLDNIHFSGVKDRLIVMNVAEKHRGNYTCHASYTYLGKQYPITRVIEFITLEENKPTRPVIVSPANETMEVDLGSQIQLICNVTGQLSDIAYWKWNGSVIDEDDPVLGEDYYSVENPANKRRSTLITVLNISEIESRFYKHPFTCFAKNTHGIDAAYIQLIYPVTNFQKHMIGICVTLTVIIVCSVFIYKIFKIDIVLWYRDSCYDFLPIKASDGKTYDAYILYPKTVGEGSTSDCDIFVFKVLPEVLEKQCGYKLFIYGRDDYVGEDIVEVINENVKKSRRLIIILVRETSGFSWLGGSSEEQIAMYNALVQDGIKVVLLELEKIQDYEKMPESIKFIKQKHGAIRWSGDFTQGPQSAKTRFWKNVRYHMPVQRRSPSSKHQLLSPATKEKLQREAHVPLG

For the substance “Kineret® (anakinra) (from UniProt P18510 26-177) (ligand)”, the IC50 (pM): inhibition of IL-8 released by IL-1β stimulation, human whole blood, 100 pM rhIL-1β was 53.4 pM.
